Source: the DeepSol protein solubility set

Experiment: soluble on expression in E. coli; label from the status in PepcDB or PDB records

Sequence	soluble on expression in E. coli
MVLLGRGLLAVGRVAFRRPMIVRHLQYDAFVDRHIGPRRLEQQQMLDFIGYKDLDDLTGTNVPNMIKAEKALELPAPLDEYKMLKELEAIAAQNKIYRSYIGMGYYDTIVPAVISRNILQNIGWISQYTPYQAEISQGRLESLLNFQTMIAEMTGLPTTNASLLDEATASAEAVALAARTTKRNKIVVDSFCHPQNLDVIRTRSGPLGIDIEVSDSIEGYAFDDKVAAVVVQYPNTEGRIHQFDELIESAHKNKSLVIMVCDLLSLTILRSPGDLGADIAVGSAQRFGVPLGYGGPHAGFMAVAKHDAKNALGRNIPGRIIGVTKDANGNRALRLALQTREQHIRRDKATSNICTAQALLANMSAMYAVYHGPQRLTEIARGVHKSTAYLAYHLRNAGHEIVHKDYFDTLKIRLKDKAALEETKKRAEEMKMNFRYYEDGDIGVSLDETVKSEDLMDIIYTLNGATEKDVTKLREERWEVACPLIGNSPHSRSSLFLQHPVFNTHQSEQQLVRYMKRLENKDVSLVHSMIPLGSCTMKLNASAELIPITWPTLSSIHPFAPVEQAKGYSRIFGDLEKWLCEITGYDNFSLQPNSGANGEYAGLLAIRNYLIHKGEEQRNICLIPTSAHGTNPASAQMANMKVVVVDSDHHGNINYKDLAAKAEKYSNQLAAIMVTYPSTHGVFESSIRDVCDKVHEHGGQVYLDGANMNAQVGLCRPGDYGSDVSHLNLHKTFCIPHGGGGPGVGPIGVKKHLAPFLPGHSVVPVDGRKVGSVASAPYGSASILAITWAYIRMMGPVGLREASQVAILNANYMAKRLENDYRIVYKDEQGLVAHEFIMDCKPFKKHGIEVVDIAKRLMDYGFHSPTMSWPVHDCLMIEPTESEDKAEMDRLVEALLSIREEIRQVENGSLDKHLNPLKMAPHTLEKVTSDNWNMPYSRELAAFPKPWCTHKAWPTVGRVDDQYGDRNLVCTCPPIESYQ	not soluble
MARKRIITPEKKELIRNLISEYNITSAKDLQEALKDLLGDTIQNMLEAELDEHLGYEKYESTEEAKSNYRNGYTSKTLKSSVGQVEIDIPRDRNAEFEPKIVPRYKRDISEIENKIIAMYARGMSTREINEQIQEIYGFEVSAEMVSKITDKILPEIEEWQKRPLGEVIR	soluble
MGSDKIHHHHHHMKVIKRLERYLSAAFSLGRIKSMSKDAQREIAELRLELGTLSQELKHTRQETERMWAWMRRHEALADDLVSVSRREAEVLKRTGQSDTALLLRMFSDLSRRIDGGESGRPDEKAPSSNGLPSSTGFEMFKDAFYHRFENQWRGAPEEISQRLKVYLPDVEAAWARAENKPIFDIGCGRGEWLGLLRQHGMEGIGFDTNAVQIKEGQAAGLDLRLGDALEALAQAEDNSLSVISAHHLIEHLPFDSVAWLTREAGRVLAPGGLLLFETPNTRNVLVGATTFYTDPTHLKPMPEQVMGVLLETAGFEPVDIRHINPHERLGEFLDRPGFDNELAQLMFGPQDLAILGIKSKDK	not soluble
MGPQSDSRTLISTYSQQSFQQFSFEYCYHSNTPSLPFSAIFSLYWLLHPFSASTGFSKGPQSDYRTLISTYYQQSFQQFSFEYCYHSNTPSLVSLFFSHLQPFLAIFSHFQPFSASAGFSKGPQSDSRTLISTYSQQSFQQFSFEYCCLSNTRSLVSLF	not soluble
MSPSASDKPLPPHHAEHMAEAVAEACRGVECGDGGPFGAVVVDSNGKVVAKGHNMVLVTKDPTMHAEMTAIKNACKALGTFDLSGHILYTSCYPCPMCMGGCLWARFDAIYYGATAQQAAEIGFDDKAFHDFLKDPKSDEIRKLEHLAADNYLLPFQMWSNKPDKTEY	soluble
MRNIAEAYFQNMVETATPLEQIILLYDKAIECLERAIEIYDQVNELEKRKEFVENIDRVYDIISALKSFLDHEKGKEIAKNLDTIYTIILNTLVKVDKTKEELQKILEILKDLREAWEEVKKKVHHHHHH	soluble
MTRRCELLVVGAGPAGMAAATQSAALGVDTLLLDEQATPGGQIYRAITTTALTRPDILGPDYWHGASLLEPLRASGAAYLSGATVWAVSRGAEAGDGGAFEVAYSVGGQADILRARHILLATGALERPFPIPGWTLPGVVTAGAAQILLKTAAIVPGEHAVLAGGGPLLYLLAWQYLNAGVRIERLLETTAPGGLARALPHALDFLRSPYLAKGLKLMRAVRAHVPITRGVRDLRAQGRERLESLSYRAGGRTHDMPARHLMLHQGVVPNLNLSRALGVDHQWNPTQACWQPRVDDWGATSVAGIGIAGDGADIGGAIAAEHRGRLAALQAAVALGRIDDARRDREARAPRRALARAMRGRAFFDVLYRPADAYRRPGDDTIVCRCEEITAGQIRATVRLGCSGPNQMKAFLRCGMGPCQGRLCGLTVSELIAHERGVPLPEVGYYRLRFPTKPVTLGELASLPQTEASRQAVVRLKKTALEHHHHHH	not soluble
PTEFLYTSKIAAISWAATGGRQQRVYFQDLNGKIREAQRGGDNPWTGGSSQNVIGEAKLFSPLAAVTWKSAQGIQIRVYCVNKDNILSEFVYDGSKWITGQLGSVGVKVGSNSKLAALQWGGSESAPPNIRVYYQKSNGSGSSIHEYVWSGKWTAGASFGSTVPGTGIGATAIGPGRLRIYYQATDNKIREHCWDSNSWYVGGFSASASAGVSIAAISWGSTPNIRVYWQKGREELYEAAYGGSWNTPGQIKDASRPTPSLPDTFIAANSSGNIDISVFFQASGVSLQQWQWISGKGWSIGAVVPTGTPAGW	soluble
MGSDKIHHHHHHMHRLPPLRAIQVFDSVARNQSFSIAASQLAITQGAVSKQVKLLEEFYAEKLFIRCGTNIELTKKGTWLAYQLTPIFDQLNGICNFNSISRGKIRIATYPSLSLGYLTYEIEQFNSAHPNIDVEIILAINHPTMCDEIADLFITTEESIDGYHYQQLFQERLIPVISPKIINDTTIIKIKDLTGYTLLVTNGKENSDWQLWFNHHNLKPAIYQKMNMFSDALLSTRAAELGNGIALSCEVTAHRDIIDGRLCKVGLPSAPTGRRYFLCCKNRRRYEPNIKLLSDWINKKFIND	not soluble
MIGDGKLLASAAWDAQSLNELKAKAGQDPAANIRPVARQVEGMFVQMMLKSMREALPKDGLFSSDQTRLYTSMYDQQIAQQMTAGKGLGLADMMVKQMTSGQTMPADDAPQVPLKFSLETVNSYQNQALTQLVRKAIPKTPDSSDAPLSGDSKDFLARLSLPARLASEQSGVPHHLILAQAALESGWGQRQILRENGEPSYNVFGVKATASWKGPVTEITTTEYENGEAKKVKAKFRVYSSYLEALSDYVALLTRNPRYAAVTTAATAEQGAVALQNAGYATDPNYARKLTSMIQQLKAMSEKVSKTYSANLDNLF	not soluble
SSSSSDGGLFRSRPAHSLPPGEDGRVEPYVDFAEFYRLWSVDHGEQSVMTAP	soluble
MGSDKIHHHHHHMKVGIDAGGTLIKIVQEQDNQRTFKTELTKNIDQVVEWLNQQQIEKLCLTGGNAGVIAENINIPAQIFVEFDAASQGLGILLKEQGHDLADYIFANVGTGTSLHYFDGQSQRRVGGIGTGGGMIQGLGYLLSQITDYKQLTDMAQHGDRNTIDLKVRHIYKDTEPPIPGDLTAANFGHVLHHLDADFTPSNKLAAVIGVVGEVVTTMAITVAREFKTENIVYIGSSFHNNALLRKVVEDYTVLRGCKPYYVENGAFSGAIGALYLEK	not soluble
MNIENPAPILDQDPYVQAYPETRAFWEAAAQGRFVLPRCRDCGQSHWYPRGLCPLCGSTALEWQDAAGTGTLYSYSVMRAAPQPYAIAYVQLAEGPLVLTNIVDSDLERLRIGQPVRVAFQRTQEGRSAPVFVALAD	not soluble
MGSDKIHHHHHHMRIGFLSHAGASIYHFRMPIIKALKDRKDEVFVIVPQDEYTQKLRDLGLKVIVYEFSRASLNPFVVLKNFFYLAKVLKNLNLDFIQSAAHKSNTFGILAAKWAKIPYRFALVEGLGSFYIDQGFKANLVRFVINSLYKLSFKFAHQFIFVNESNAEFMRNLGLKENKICVIKSVGINLKKFFPIYVESEKKELFWKNLNIDKKPIVLMIARALWHKGVKEFYESATMLKDKANFVLVGGRDENPSCASLEFLNSGAVHYLGARSDIVELLQNCDIFVLPSYKEGFPVSVLEAKACGKAIVVSDCEGCVEAISNAYDGLWAKTKNAKDLSEKISLLLEDEKLRLNLAKNAAQDALQYDENIIAQRYLKLYDRVIKNV	not soluble
MGSDKIHHHHHHMVQLIKKYEDLLCLLDELIKNESTFRWDEFYLERERDVPFFVLAPDEQLVEYVCTGLIESGKVLELGCGPGRNAIYLAENHFEVDVVDLSQKAIDWAMDRANERKASIRFIRENIFNLNVNKASYDLVYDSGCFHHIPPHRRMDYIHLVTTALKPGGHFGLTCFIENGPLGGAAISDLDVYRQQSLQGGLGFTEQKLIQIFDDFAVIEIRKMKEYPNDSSRFGVNGLLTALFQKKKVEKVK	not soluble
MSLITTRTARQCGQADYGWLQARYTFSFGHYFDPKLLGYASLRVLNQEVLAPGAAFQPRTYPKVDILNVILDGEAEYRDSEGNHVQASAGEALLLSTQPGVSYSEHNLSKDKPLTRMQLWLDACPQRENPLIQKLALNMGKQQLIASPEGAMGSLQLRQQVWLHHIVLDKGESANFQLHGPRAYLQSIHGKFHALTHHEEKEGHHHHHH	not soluble
MDKKPLNTLISATGLWMSRTGTIHKIKHHEVSRSKIYIEMACGDHLVVNNSRSSRTARALRHHKYRKTCKRCRVSDEDLNKFLTKANEDQTSVKVKVVSAPTRTKKAMPKSVARAPKPLENTEAAQAQPSGSKFSPAIPVSTQESVSVPASVSTSISSISTGATASALVKGNTNPITSMSAPVQASAPALTKSQTDRLEVLLNPKDEISLNSGKPFRELESELLSRRKKDLQQIYAEERENYLGKLEREITRFFVDRGFLEIKSPILIPLEYIERMGIDNDTELSKQIFRVDKNFCLRPMLAPNLYNYLRKLDRALPDPIKIFEIGPCYRKESDGKEHLEEFTMLNFCQMGSGCTRENLESIITDFLNHLGIDFKIVGDSCMVYGDTLDVMHGDLELSSAVVGPIPLDREWGIDKPWIGAGFGLERLLKVKHDFKNIKRAARSESYYNGISTNL	soluble
MKLTWIKCMSKTERISDIDEPRLFEENGVEAHIAAFVMPLLKPLGFRLVRVKLLGLNGLTLQIMVERPDGSMTVEDCETVSRTVSPLLDVQNVIERKYHLEISSPGIDRPLVRKSDFFHWQGHIAKIETKIILEGRRKFRGTLTNITQDGFTLNTDKAAYGESMYISIPFDDIIDAHLVLTDELIRDALKKNKDLSQQFISEDNQKLSKQERNYKN	not soluble
MGSDKIHHHHHHMVKLFREKKDMGSPKIQNFKRQTVLHKGQRTRLPATYIAPEDVSIWDIIRPNLGKDFSRFTVPVFMNEPLSFLQRLSENVQYNYLLEKAAKCSDDMERIEFYEFRFFFNWKKLKHQMKLSNSAHKTGFTFANSINYVAAFALATVSANHKRLSKPFNPLLLETFELERNGVRFLAEQVSHHPPISAVYAESDEFTVEGTVEPTLGFWMTKLLANPHAHLKLTFKKTGETYSWSAPKCAIYNVIMGKMYMNFTSHMKIESSGTYDAVFSFDNKGYYNHKGGDVHVEGHIFEGKNKIKALYGNWTLFLASCDNEDFKHHRKEYLRMFNETVSEKDQGPVVPGSKILWVSNQIPKLFDDQFHFTNFTLSLNEMYPGMSDTVAPTDSRRRKDMKALEDGKNDEAEEFKHKYEEEQRERRTTKTGDVPMWFAKNDEGHWAYKGGYWDRDYSNCLELFESLENSSTNSSNSSISSVD	not soluble
